Legend:
Assay in all cases: pull-down; anti-FLAG M2 agarose beads bound to Swi1-FLAG (purified from swi3Δ cells) mixed with His6-Swi3 in lysis buffer A (50 mM Tris-HCl pH 8.0, 150 mM NaCl, 0.1% NP-40, 10% glycerol), 1 hour at 4°C, washed three times, Western blotting with anti-FLAG or His6 antibody
Settings in all cases: both partners purified
Swi1 (250–550)-5FLAG = target: T1, Swi1 (250–550)-5FLAG (S. pombe, UniProt Q9UUM2 250-550)
T1 construct: Swi1, S. pombe, amino acids 250–550 (contains an NLS and the DDT domain); also called DDT domain-containing region; pREP-Swi1(250–550)-5FLAG; source: S. pombe swi3Δ cells, nmt1 promoter, purified on anti-FLAG M2 agarose (500 mM NaCl washes); not shown: 5FLAG, C-terminal, kept
T1 sequence (looked up): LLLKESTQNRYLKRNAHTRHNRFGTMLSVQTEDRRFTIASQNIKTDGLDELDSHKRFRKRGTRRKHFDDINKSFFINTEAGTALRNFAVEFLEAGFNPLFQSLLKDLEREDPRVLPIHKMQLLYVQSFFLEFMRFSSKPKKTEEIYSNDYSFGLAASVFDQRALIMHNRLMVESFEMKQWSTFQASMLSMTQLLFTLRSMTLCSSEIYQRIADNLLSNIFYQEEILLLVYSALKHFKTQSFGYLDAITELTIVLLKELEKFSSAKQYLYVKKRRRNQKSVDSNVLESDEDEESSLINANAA

Swi1 (750–971)-5FLAG = target: T2, Swi1 (750–971)-5FLAG (S. pombe, UniProt Q9UUM2 750-971)
T2 construct: also called C-terminal Swi1; Swi1 C-terminal region; source: S. pombe swi3Δ cells, nmt1 promoter, purified on anti-FLAG M2 agarose (500 mM NaCl washes); not shown: 5FLAG, C-terminal, kept
T2 sequence (looked up): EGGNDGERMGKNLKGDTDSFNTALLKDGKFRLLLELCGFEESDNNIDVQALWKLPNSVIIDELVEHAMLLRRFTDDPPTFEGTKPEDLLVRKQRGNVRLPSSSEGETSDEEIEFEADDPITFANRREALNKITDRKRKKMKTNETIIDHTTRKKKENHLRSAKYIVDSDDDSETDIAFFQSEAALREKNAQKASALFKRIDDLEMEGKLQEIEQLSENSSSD

[1] = target: T3, full-length Swi1 (1–971)-5FLAG (overexpressed from the nmt1 promoter) (S. pombe, UniProt Q9UUM2 1-971)
T3 construct: also called pREP-Swi1-5FLAG; Swi1-FLAG; source: S. pombe swi3Δ cells, nmt1 promoter, purified on anti-FLAG M2 agarose (500 mM NaCl washes); not shown: 5FLAG, C-terminal, kept
T3 sequence (looked up): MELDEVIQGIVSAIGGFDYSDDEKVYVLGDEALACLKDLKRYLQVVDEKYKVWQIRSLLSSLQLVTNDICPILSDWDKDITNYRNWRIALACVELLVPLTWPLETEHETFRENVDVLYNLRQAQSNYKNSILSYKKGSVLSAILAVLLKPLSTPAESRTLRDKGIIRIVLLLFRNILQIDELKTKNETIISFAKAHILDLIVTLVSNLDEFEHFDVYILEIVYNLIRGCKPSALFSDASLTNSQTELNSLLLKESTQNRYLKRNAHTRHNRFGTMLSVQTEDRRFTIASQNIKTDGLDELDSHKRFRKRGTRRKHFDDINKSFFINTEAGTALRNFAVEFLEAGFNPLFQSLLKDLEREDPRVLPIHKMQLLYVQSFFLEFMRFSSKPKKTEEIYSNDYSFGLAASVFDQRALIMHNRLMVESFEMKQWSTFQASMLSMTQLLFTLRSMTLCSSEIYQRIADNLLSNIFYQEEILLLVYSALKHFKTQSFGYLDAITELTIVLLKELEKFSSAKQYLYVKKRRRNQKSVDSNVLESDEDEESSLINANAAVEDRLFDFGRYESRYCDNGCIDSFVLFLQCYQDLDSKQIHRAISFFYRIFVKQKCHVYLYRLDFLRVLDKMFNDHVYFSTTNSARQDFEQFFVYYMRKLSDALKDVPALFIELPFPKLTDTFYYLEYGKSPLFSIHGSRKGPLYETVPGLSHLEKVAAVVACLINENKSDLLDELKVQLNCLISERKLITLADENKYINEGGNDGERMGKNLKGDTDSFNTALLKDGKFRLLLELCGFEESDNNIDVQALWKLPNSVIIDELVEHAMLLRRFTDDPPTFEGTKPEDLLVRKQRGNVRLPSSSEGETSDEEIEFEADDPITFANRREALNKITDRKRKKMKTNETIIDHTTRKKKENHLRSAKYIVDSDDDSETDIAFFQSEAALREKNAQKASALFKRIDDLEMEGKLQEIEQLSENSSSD

Measured: binding result

B1: hexahistidine-tagged Swi3 (His6-Swi3) (natural protein, S. pombe, UniProt O14350 1-181, looked up)
chain: MSTAASDSGVEKLVEENKREEVKKNEEEKEFDLGLEENPDSVKKPRKRLAKFDEERLISENGIPKLRKMMRKVKLKGKGHEAKDLKQLLGMYHIWTHELYPRATFDDSISYLKTLGKHRSVKVRRRGWINEIAVENGSDSNASLFTGPSSNSLVNLTSGDPYVQDTADDAFVAQDNDTQLE
notes: Swi3, S. pombe; swi3 open reading frame in the NdeI/XhoI site of pET28a; also called recombinant Swi3; pET28a-Swi3; source: E. coli BL21(DE3), purified (Ni-NTA)
binds: all assays above

Reference: paper PMC3431386, “Swi1 Associates with Chromatin through the DDT Domain and Recruits Swi3 to Preserve Genomic Integrity” (PLoS ONE, 2012)
